# Source: US20190060430A1 (published 2019)
# Residue numbers refer to the chain shown, from its start.
# T1: PLAC1 peptide on HLA-A*02:01 (human)
# T1 peptide: CSIDWFMVTVHP
# T2: TPTE peptide on HLA-DRB1*15:01 (human)
# T2 peptide: DVVYIFFDIKLLRNI
# T3: PLAC1 peptide on HLA-A*02:01 (human)
# T3 peptide: SIDWFMVTV
# T4: PLAC1 peptide on HLA-A*02:01 (human)
# T4 peptide: VLCSIDWFM
# T5: NY-ESO-1 peptide on HLA-B*35:08 (human)
# T5 peptide: LAMPFATPM
# B1: TCRCD8-mPL#17 (TCR, V domains shown)
# Valpha: QQQVRQSPQSLTVWEGETAILNCSYEDSTFNYFPWYQQFPGEGPALLISIRSVSDKKEDGRFTIFFNKREKKLSLHITDSQPGDSATYFCAPNNRIFFGDGTQLVVKP
# Vbeta: EAAVTQSPRNKVAVTGGKVTLSCNQTNNHNNMYWYRQDTGHGLRLIHYSYGAGSTEKGDIPDGYKASRPSQENFSLILELATPSQTSVYFCASLGYNYAEQFFGPGTRLTVL
# B2: TCRCD8-mPL#12 (TCR, V domains shown)
# Valpha: GDQVEQSPSALSLHEGTGSALRCNFTTTMRAVQWFQQNSRGSLINLFYLASGTKENGRLKSTFNSKESYSTLHIRDAQLEDSGTYFCAAVNTNTGKLTFGDGTVLTVKP
# Vbeta: SVLLYQKPNRDICQSGTSLKIQCVADSQVVSMFWYQQFQEQSLMLMATANEGSEATYESGFTKDKFPISRPNLTFSTLTVNNARPGDSSIYFCSSRTPNTGQLYFGEGSKLTVL
# B3: TCRCD8-mPL#2 (TCR, V domains shown)
# Valpha: GDSVTQTEGQVTVSESKSLIINCTYSATSIGYPNLFWYVRYPGEGLQLLLKVITAGQKGSSRGFEATYNKEATSFHLQKASVQESDSAVYYCALSDSNYQLIWGSGTKLIIKP
# Vbeta: DPKIIQKPKYLVAVTGSEKILICEQYLGHNAMYWYRQSAKKPLEFMFSYSYQKLMDNQTASSRFQPQSSKKNHLDLQITALKPDDSATYFCASSPDNSGNTLYFGEGSRLIVV
# B4: TCRCD8-mPL#11 (TCR, V domains shown)
# Valpha: GDSVTQTEGPVTVSESESLIINCTYSATSIAYPNLFWYVRYPGEGLQLLLKVITAGQKGSSRGFEATYNKETTSFHLQKASVQESDSAVYYCALGLGYKLTFGTGTSLLVDP
# Vbeta: B3 Vbeta with P95G
# B5: TCRCD8-mPL#8 (TCR, V domains shown)
# Valpha: TQTVSQSDAHVTVFEGDSVELRCNYSYGGSIYLSWYIQHHGRGLQFLLKYYSGNPVVQGVNGFKAEFSKSDSSFHLRKASVHWSDSAVYFCAVSAGGYKVVFGSGTRLLVSP
# Vbeta: NTKITQSPRYLILGRANKSLECEQHLGHNAMYWYKQSAEKPPELMFLYNLKQLIRNETVPSRFIPECPDSSKLLLHISAVDPEDSAVYFCASSPGGAEQFFGPGTRLTVL
# B6: TCRCD8-mPL#14 (TCR, V domains shown)
# Valpha: B5 Valpha with R42H, K64E, A95S
# Vbeta: B5 Vbeta with P94Q, A97T, Q99V, P103K, L110V
# B7: TCRCD8-mPL#22 (TCR, V domains shown)
# Valpha: GQQVQQSPASLVLQEGENAELQCNFSSTATRLQWFYQHPGGRLVSLFYNPSGTKHTGRLTSTTVTNERRSSLHISSSQTTDSGTYFCAAASNTNKVVFGTGTRLQVLP
# Vbeta: GALVYQYPRRTICKSGTSMRMECQAVGFQATSVAWYRQSPQKTFELIALSTVNSAIKYEQNFTQEKFPISHPNLSFSSMTVLNAYLEDRGLYLCGVDRANYAEQFFGPGTRLTVL
# B8: TCRCD8-mPL#20 (TCR, V domains shown)
# Valpha: GDSVTQKEGLVTLTEGLPVMLNCTYQTIYSNAFLFWYVHYLNESPRLLLKSSTDNKRTEHQGFHATLHKSSSSFHLQKSSAQLSDSALYYCALNNVGDNSKLIWGLGTSLVVNP
# Vbeta: NTKITQSPRYLILGRANKSLECEQHLGHNAMYWYKQSAEKPPELMFLYNLKQLIRNETVPSRFIPECPDSSKLLLHISAVDPEDSAVYFCASSQYGGANTEVFFGKGTRLTVV
# B9: TCRCD8-mPL#19 (TCR, V domains shown)
# Valpha: GDSVIQMQGQVTLSENDFLFINCTYSTTGYPTLFWYVQYSGEGPQLLLQVTTANNKGSSRGFEATYDKGTTSFHLQKTSVQEIDSAVYYCAMSDASGSWQLIFGSGTQLTVMP
# Vbeta: EAAVTQSPRSKVAVTGGKVTLSCHQTNNHDYMYWYRQDTGHGLRLIHYSYVADSTEKGDIPDGYKASRPSQENFSLILELASLSQTAVYFCASSPDRPSYNSPLYFAAGTRLTVT
# B10: TCRCD4-TPT#67 (TCR, V domains shown)
# Valpha: QKEVEQDPGPLSVPEGAIVSLNCTYSNSAFQYFMWYRQYSRKGPELLMYTYSSGNKEDGRFTAQVDKSSKYISLFIRDSQPSDSATYLCALYTGGFKTIFGAGTRLFVKA
# Vbeta: KAGVTQTPRYLIKTRGQQVTLSCSPISGHRSVSWYQQTPGQGLQFLFEYFSETQRNKGNFPGRFSGRQFSNSRSEMNVSTLELGDSALYLCASSFMGTEQYFGPGTRLTVT
# B11: TCRCD8-NY#6 (TCR, V domains shown)
# Valpha: SQQGEEDPQALSIQEGENATMNCSYKTSINNLQWYRQNSGRGLVHLILIRSNEREKHSGRLRVTLDTSKKSSSLLITASRAADTASYFCATDEYGNKLVFGAGTILRVKS
# Vbeta: DAGVIQSPRHEVTEMGQEVTLRCKPISGHNSLFWYRQTMMRGLELLIYFNNNVPIDDSGMPEDRFSAKMPNASFSTLKIQPSEPRDSAVYFCASSYPGFNEQFFGPGTRLTVL
# B12: TCRCD8-NY#15 (TCR, V domains shown)
# Valpha: QKEVEQNSGPLSVPEGAIASLNCTYSDRGSQSFFWYRQYSGKSPELIMSIYSNGDKEDGRFTAQLNKASQYVSLLIRDSQPSDSATYLCAVPYYWSSGGSNYKLTFGKGTLLTVNP
# Vbeta: DTEVTQTPKHLVMGMTNKKSLKCEQHMGHRAMYWYKQKAKKPPELMFVYSYEKLSINESVPSRFSPECPNSSLLNLHLHALQPEDSALYLCASSQSGLEETQYFGPGTRLLVL
# B13: TCRCD8-NY#5 (TCR, V domains shown)
# Valpha: ILNVEQSPQSLHVQEGDSTNFTCSFPSSNFYALHWYRWETAKSPEALFVMTLNGDEKKKGRISATLNTKEGYSYLYIKGSQPEDSATYLCASTSYSSASKIIFGSGTRLSIRP
# Vbeta: GAGVSQSPRYKVTKRGQDVALRCDPISGHVSLYWYRQALGQGPEFLTYFNYEAQQDKSGLPNDRFSAERPEGSISTLTIQRTEQRDSAMYRCASSHSSGGAGELFFGEGSRLTVL
# B14: TCRCD8-NY#8 (TCR, V domains shown)
# Valpha: AQSVTQLDSQVPVFEEAPVELRCNYSSSVSVYLFWYVQYPNQGLQLLLKYLSGSTLVKGINGFEAEFNKSQTSFHLRKPSVHISDTAEYFCAVSDQGTGGFKTIFGAGTRLFVKA
# Vbeta: DVKVTQSSRYLVKRTGEKVFLECVQDMDHENMFWYRQDPGLGLRLIYFSYDVKMKEKGDIPEGYSVSREKKERFSLILESASTNQTSMYLCASRGTVTSSLMNTEAFFGQGTRLTVV
# Target: T1, PLAC1 peptide on HLA-A*02:01
# Test: cytokine release
row,binding result,Binder
1,recognises,B1
2,recognises,B2
3,recognises,B3
4,recognises,B4
5,recognises,B5
6,recognises,B6
7,recognises,B7
8,recognises,B8
9,recognises,B9

# Target: T2, TPTE peptide on HLA-DRB1*15:01
# Test: cytokine release
row,binding result,Binder
1,recognises,B10

# Target: T3, PLAC1 peptide on HLA-A*02:01
# Test: cytokine release
row,binding result,Binder
1,recognises,B1
2,recognises,B2
3,recognises,B3
4,recognises,B4
5,recognises,B5
6,recognises,B6
7,recognises,B7
8,recognises,B8
9,recognises,B9

# Target: T4, PLAC1 peptide on HLA-A*02:01
# Test: cytokine release
row,binding result,Binder
1,recognises,B1
2,recognises,B2
3,recognises,B3
4,recognises,B4
5,recognises,B5
6,recognises,B6
7,recognises,B7
8,recognises,B8
9,recognises,B9

# Target: T5, NY-ESO-1 peptide on HLA-B*35:08
# Test: cytokine release
row,binding result,Binder
1,recognises,B11
2,recognises,B12
3,recognises,B13
4,recognises,B14
